Reference: paper PMC13426413 (Science Advances, 2026)
Ends that are not written are not given here.

How the values were obtained:
[1] = biological target: Tom70:Orf9b_(Helix) complex (human | SARS-CoV-2, UniProt O94826 108-608); assay: ITC
[2] = biological target: ^19F Tom70:Orf9b_(Helix) complex (human | SARS-CoV-2, UniProt O94826 108-608, 5-fluoro-tryptophan at W169 and W523); assay: NMR titration
[3] = biological target: T1, human Tom70 (residues 108–608) (human, UniProt O94826 108-608); assay: cryo-EM structure
T1 sequence: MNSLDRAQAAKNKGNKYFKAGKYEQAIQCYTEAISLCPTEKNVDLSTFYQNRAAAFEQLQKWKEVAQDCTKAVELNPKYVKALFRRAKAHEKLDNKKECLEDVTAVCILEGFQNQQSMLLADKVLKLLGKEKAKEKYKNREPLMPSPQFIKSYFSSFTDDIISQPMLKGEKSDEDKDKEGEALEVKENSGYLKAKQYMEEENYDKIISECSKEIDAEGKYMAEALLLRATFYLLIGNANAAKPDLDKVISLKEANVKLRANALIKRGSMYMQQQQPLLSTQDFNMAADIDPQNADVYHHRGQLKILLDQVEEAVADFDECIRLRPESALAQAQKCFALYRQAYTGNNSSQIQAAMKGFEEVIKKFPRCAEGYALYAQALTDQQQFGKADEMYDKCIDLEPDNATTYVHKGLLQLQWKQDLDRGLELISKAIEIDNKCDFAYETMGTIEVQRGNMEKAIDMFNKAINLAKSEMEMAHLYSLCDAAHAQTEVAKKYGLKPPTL

[4] = biological target: T2, ^19F-labeled Tom70 (5F-tryptophan, residues 108–608) (human, UniProt O94826 108-608, 5-fluoro-tryptophan at W169 and W523); assay: NMR titration
T2 sequence: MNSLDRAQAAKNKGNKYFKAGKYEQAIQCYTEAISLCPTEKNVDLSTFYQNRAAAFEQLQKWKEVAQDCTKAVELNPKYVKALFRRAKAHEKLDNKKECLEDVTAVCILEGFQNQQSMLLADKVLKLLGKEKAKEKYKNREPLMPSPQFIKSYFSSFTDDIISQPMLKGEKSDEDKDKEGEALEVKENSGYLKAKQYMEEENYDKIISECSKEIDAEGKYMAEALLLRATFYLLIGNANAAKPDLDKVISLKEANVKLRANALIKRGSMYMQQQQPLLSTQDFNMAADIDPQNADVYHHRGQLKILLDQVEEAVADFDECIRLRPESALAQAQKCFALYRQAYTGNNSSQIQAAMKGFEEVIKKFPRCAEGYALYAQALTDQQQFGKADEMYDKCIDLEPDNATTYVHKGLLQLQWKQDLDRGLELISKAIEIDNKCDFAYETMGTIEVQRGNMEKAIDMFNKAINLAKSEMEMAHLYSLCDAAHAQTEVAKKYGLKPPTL

[5] = biological target: Tom70:Hsp90_(EEVD) complex (human, UniProt O94826 108-608); assay: ITC
[6] = biological target: T1, human Tom70 (residues 108–608); assay: ITC

Measured: binding result

YDTSRMEEVD-OH [Hsp90_(EEVD) peptide]
binds: [1] | [2] | [3]

IILRLGSPLSLNMARKTLNSLEDKAFQLTPIAVQY [Orf9b_(Helix) peptide]
binds: [4] | [5] | [6]
